Measurements published in publication PMC10119177 (2023).

B1: recombinant CEACAM1 N-terminal domain with His tag (rCEACAM1-N-HIS), wildtype [human] / IgI3 domain of R28 (R28-IgI3), wildtype [Streptococcus pyogenes] (parent complex)
chain 1: AQLTTESMPFNVAEGKEVLLLVHNLPQQLFGYSWYKGERVDGNRQIVGYAIGTQQATPGPANSGRETIYPNASLLIQNVTQNDTGFYTLQVIKSDLVNEEATGQFHVY
chain 2: TAPTLTVTPEQQTVKVDEDITFTVTVEDENEVELGLDDLKAKYENDIIGARVKIKYLTKEPNKKVMEVTIMKATLADKGAITFTAKDKAGNQAEPKTVTINVLPLKDSNEPKLPSTGGS

Variants of: B1
Assay: Dynabead binding assay (Dynabeads coated with R28-IgI3, DB.R28IgI3, incubated with rCC1-N variants); parent: 23; read off a plot
With chain 1 L96A the response was ~6.
chain 1 N98A gave a response of ~90.
In the case of chain 1 V97A, the response is reported as ~100.
chain 1 I92A showed a response of ~5.
chain 1 Q45A was tested, and the response was ~20.
Variant chain 1 F30A has a response of ~5.5.
chain 1 Q90A gave a response of ~10.

Variants of: B1
Assay: Dynabead binding assay (Dynabeads coated with R28-IgI3, DB.R28IgI3, incubated with rCC1-N); parent: 33; read off a plot
chain 2 K59A gave a response of ~21.
With chain 2 I47A the response was ~5.5.
chain 2 K40A showed a response of ~7.
chain 2 E44A gave a response of ~40.
Work on chain 2 I54A yielded a response of ~19.
chain 2 I48A was tested, and the response was ~5.5.
Variant chain 2 Y56A has a response of ~7.
